Experiment: soluble on expression in E. coli; label from the status in PepcDB or PDB records

Sequence | soluble on expression in E. coli
MGSDKIHHHHHHMNGKLQSSDVKNETPYNIPLLINENVISSGISLISLWHTYADEHYRVIWPRDKKKPLIANSWVAVYTVQGCGKILLKNGEQITLHSNCIIFLKPMDIHSYHCEGLVWEQYWMEFTPTSMMDIPVGQQSVIYNGEIYNQELTEVAELITSPEAIKNNLAVAFLTKIIYQWICLMSADGKKDPQRRQIEKLIATLHASLQQRWSVADMAATIPCSEAWLRRLFLRYTGKTPKEYYLDARLDLALSLLKQQGNSVGEVADTLNFFDSFHFSKAFKHKFGYAPSAVLKNTDQHPTDASPHN | not soluble
MNYQVLLYYKYTTIDDPEQFAQDHLAFCKAHHLKGRILVSTEGINGTLSGTKEETEQYMAHMHADERFKDMVFKIDEAEGHAFKKMHVRPRKEIVALDLEDDVDPRHTTGQYLSPVEFRKALEDDDTVIIDARNDYEFDLGHFRGAIRPDITRFRDLPDWIKENKALFTDKKVVTYCTGGIRCEKFSGWLLKEGFEDVAQLHGGIATYGKDPETKGQYWDGKMYVFDDRISVDINQVEKTIIGKDWFDGKPCERYINCANPECNKQILVSEENETKYLGACSYECAKHERNRYVQANNISDNEWQQRLTNFDDLHQHALEHHHHHH | soluble
MGSDKIHHHHHHMTTDYRLTSDADREAFYQLYQYAFNNHDTPARRRFFMDRYQHGWIYGRHDHGQLVSGLYSLPLAVNFHGVTYRMNGIGDVMSAPEYAGQGGAGQLLTTALTEMAANHVTLSYLAPFAYGYYRRFGYEHVFNHAHQVMAAPDLPRVKPTDWSGTITRYGNDGLAQINDFYARQPQNQCGGLIRPAWWQHYLTLKHHWSVAIYRNAAANIEGYLIYERQATNFAIQEWVTSTPTAFERLANFITKHGTTFETFSYDSPSATNGLDLLADPYRLKVTVQPYMMARIVDLYDFIKRYPFLTDIQPIRLAVSDATLPANQGIWSLTRHNGQVTLNRVSDQLTGPADIQLTIQQLTTACFGTQSLARAYQHGLITGDVNAINRLDTSLVKERPALIDYF | not soluble
MMDNNITETEMKVGHPPANKVGGRRVVNRKDRKNSDSNDNANSEGSDEVVREIIDYDLPAKMERSYPTEAVKKVHEKPMPAIQPVHINRDANSGVHRFQPRKQTH | soluble
MGHHHHHHHHHHSSGHIEGRHMILLEKTQEKKINDKEELIVKEEVETNWDYGCNPYERKIEDLIKYGVVVVDKPRGPTSHEVSTWVKKILNLDKAGHGGTLDPKVTGVLPVALERATKTIPMWHIPPKEYVCLMHLHRDASEEDILRVFKEFTGRIYQRPPLKAAVKRRLRIRKIHELELLDKDGKDVLFRVKCQSGTYIRKLCEDIGEALGTSAHMQELRRTKSGCFEEKDAVYLQDLLDAYVFWKEDGDEEELRRVIKPMEYGLRHLKKVVVKDSAVDAICHGADVYVRGIAKLSKGIGKGETVLVETLKGEAVAVGKALMNTKEILNADKGVAVDVERVYMDRGTYPRMWKRKK | soluble
MDSKILTMFNQGKHEEAIQAAVKAIDAAPDDPKRYAMLATMLISIKALDQAGELLAKARQLFPEDLELQYTAGLFAYAQADFAAAVSWFAKVRTDQTLKNDATYMLALSYQQAGQPTKALAFALTAHDLAPKQLDTALLAADLLMANDVFDAAARVLKPLLATEQPQVLFTYGMALSAAGKDGSHYLNKAKALDPKGYDQKANIVADINRFLRLQEGLEHHHHHH | not soluble
MQVEQRTLNTAAHPFQITAYWLDQISDFETAVDYPIMIICPGGGFTYHSGREEAPIATRMMAAGMHTVVLNYQLIVGDQSVYPWALQQLGATIDWITTQASAHHVDCQRIILAGFSAGGHVVATYNGVATQPELRTRYHLDHYQGQHAAIILGYPVIDLTAGFPTTSAARNQITTDARLWAAQRLVTPASKPAFVWQTATDESVPPINSLKYVQAMLQHQVATAYHLFGSGIHGLALANHVTQKPGKDKYLNDQAAIWPQLALRWLQEQGLLAGNYLEHHHHHH | soluble
MAISQFFEKIDRYYQKNLKEYEFSEEYSDISFNTFLYLRKINSLGNPTMSELAKAMEVSKPSASNMVSKMTEKGLVETGASPKDGRVCLLGLTDKGKKVIEIENGADMKFFEKIREILDEEELEVLERIFEKIAAGLEGEKHDR | not soluble
MSLGVKVKVINGGVLISQDLSCAGQVSTSVALPILGACGARPTVLPTAILSTHTGFKDNTYLDLSNEMSRIMSHWQKIDLEFKAIYLGYLGKEALDFWIKNIEQIIRTNQVVLIDPAMADHGKMYRGLDTDYIKKMRQLIFKATILTPNITEAAFLLNEDIPENSLEKAQVLAEKLVQRFAIPNVIITGITLSKDKIGEVGITKEGKWSIIQEKMPGDFFGTGDMFASAFLAAVLYGKNLEKSCAIAAEFVKLAIIDMDQKLESLFGPNYAAGLPWLLSELEKEGHHHHHH | soluble
MGSDKIHHHHHHMKERILQEIKTRVNRKSWELWFSSFDVKSIEGNKVVFSVGNLFIKEWLEKKYYSVLSKAVKVVLGNDATFEITYEAFEPHSSYSEPLVKKRAVLLTPLNPDYTFENFVVGPGNSFAYHAALEVAKHPGRYNPLFIYGGVGLGKTHLLQSIGNYVVQNEPDLRVMYITSEKFLNDLVDSMKEGKLNEFREKYRKKVDILLIDDVQFLIGKTGVQTELFHTFNELHDSGKQIVICSDREPQKLSEFQDRLVSRFQMGLVAKLEPPDEETRKSIARKMLEIEHGELPEEVLNFVAENVDDNLRRLRGAIIKLLVYKETTGKEVDLKEAILLLKDFIKPNRVKAMDPIDELIEIVAKVTGVPREEILSNSRNVKALTARRIGMYVAKNYLKSSLRTIAEKFNRSHPVVVDSVKKVKDSLLKGNKQLKALIDEVIGEISRRALSG | not soluble
MVAVKREFELSHVFKDVSKLEDGNTFYGPEEEHFNVQWRIVLIHQKEDVAVFLRYLHPKNEQAPWKIDSEFTLKLSNSSGKSVTKTGSDIWNSYDALGFCDVFEWDSLLKDYLIDDVIIIEVAVKIKNMSGIPKKKLKSFERSNEEFSDVILAVGDKKFFVLRKFLASHSTYFETLLLGNFAEADKSEVKLQDINSTDFQNLMEVRYGEYAIDEETVDGILHLAHLYDMPFPIKRCEEFLVDSSEKSTKEKLKVAKKYQLENLKASCLAKINTLEEIKAALAGDLDEMDPSVVHALFRKSLALH | not soluble
MGSDKIHHHHHHMAGSVIHLDENAGPPATHGLVVGVGKYPHLEGGEAPVADSDGMRQLSSPPLSARAFARWLLAEYHDPQRPLGSVSLLLSEEQPAPFVNPRTGTAHEVEVATIDNILAAVTQWYDRGDSHVDNRLVFYFCGHGISQGDDMALLAADIFADPHNPLNGALDFAGLMNGLKRCKASQQVFFLDACRSNSDVLIEASGTRFAGRTPLGAGARPLDLPRRFHIPYYATLSGDQSHARPGQVSLFTEALLKSLAGAASDDPEGDWRVNTAHLLEAIDHFMHQPCFAGMVAGVQVPAVGELPVFVLHQLAGPPVVPVYVGCDPAQDNAEAEFVCLEGGRERLRRTLNDVDDTDPESEWAIELSFGDYDFEARLGERDVRTKTITVRPVFRRVHLVKS | not soluble
MVAYPGPMPRSPSPGQTPDAPTSGGGSTDSTRQRIVAAAKEEFARHGIAGARVDRIAKQARTSKERVYAYFRSKEALYAHVAERETTALIEATQLDPADLPGYAGILFDHFAARPDHYRLITWGRLELAESADNTSGPLQATIAGKLDKLRDAQRIGLLDPAWDPVDVLALINQIAMTWAGQPEIAAAAADQAVDPSVTARRAALVTAVEHMFPRPDRDQRPNRLT | soluble
KYQLMANDPVQYKALGKMLGSMGRSDPNEIAPLYFSELMAALKKCATRRTHTNVLQHLCGYLKQTISAEDKQEIQEVIGQYHQGIVPLIVPLTLLKHHFRQHPDPYVALQVYMQPHP | not soluble
MKERIVGQSGELFCFGQMPVWKVENLPEVLLSGYSSEEGEWVCLNVLQGDVEVRAPDGAAEVWSAESGDCVFAPQQVFSVKPKTDDAEIRLSLYCAAADYFHKKYGMSATHSAVAAAQDTVPAGRALDMGCGQGRNALFLGLKGFDVTAADCNPAALANVAELAEAEGLNVRTLEYDLNAAALQGEFDYIVATVVLMFLMPQRVPDVIADMQAHTAAGGYNLIVSAMDTADFPCPMPFPFKFKEGELKDYYRDWELVEYKEELGAMHAKDENGNPIRFKFVTMLAKKPGLEHHHHHH | soluble
MSQEHESSFQDPSRDELIQQVKELQIINANQRPEKILQEAFEKINLLVITIDQDGLIVYANEAFLEVIGWEKQRLLGENWKEFLEPGKDKNKEEHIYTLIKKQGFIDQLKRKFLSKEGDYRTIKFNVVIHHPIGNDVHLTTLIGEDIT | not soluble
GSHMVTIVRIYLDGVYGIGKSTTGRVMASAASGGSPTLYFPEPMAYWRTLFETDVISGIYDTQNRKQQGNLAVDDAALITAHYQSRFTTPYLILHDHTCTLFGGNSLQRGTQPDLTLVFDRHPVASTVCFPAARYLLGDMSMCALMAMVATLPREPQGGNIVVTTLNVEEHIRRLRTRARIGEQIDITLIATLRNVYFMLVNTCHFLRSGRVWRDGWGELPTSCGAYKHRATQMDAFQERVSPELGDTLFALFKTQELLDDRGVILEVHAWALDALMLKLRNLNVFSADLSGTPRQCAAVVESLLPLMSSTLSDFDSASALERAARTFNAEMGV | soluble
MTPLSSPLSQYWQTVVERLPEGFTETSLSAQAKSVLTFSDFALDSVIAHPEWLAELESASPQADEWRHYAGWLQEALAGVCDDASLMRELRLFRRRIMVRIAWAQTLSLVDDETILQQLSHLAETLIVGARDWLYAACCREWGTPCNPQGVPQPLLILGMGKLGGGELNFSSDIDLIFAWPEHGETRGGRRELDNAQFFTRLGQRLIKALDQPTMDGFVYRVDMRLRPFGDSGPLVLSFAALEDYYQEQGRDWERYAMVKARLMGDNDDAWSRELRAMLRPFVFRRYIDFSVIQSLRNMKGMIAREVRRRGLKDNIKLGAGGIREIEFIVQVFQLIRGGREPSLQSRSLLPTLDAIAALHLLPENDVAQLRVAYLFLRRLENLLQSINDEQTQTLPADDLNRARLAWGMKAENWPQLVGELTDHMANVRRVFNELIGDDEADTPQEEERSEPWREVWQDALQEDDSTPVLAHLADEDRRQVLTLIADFRKELDKRPIGPRGRQVLDQLMPHLLADVCSREDAAVTLSRITPLLAGIVTRTTYLELLSEFPGALKHLIMLCAASPMIASQLARYPLLLDELLDPGTLYQPTATDAYRDELRQYLLRVPEEDEEQQLEALRQFKQAQLLRIAAADIAGTLPVMKVSDHLTWLAEAMIDAVVQQAWTQMVARYGQPAHLDERQGRGFAVVGYGKLGGWELGYSSDLDLIFLHDCPMDVMTNGEREIDGRQFYLRLAQRIMHLFSTRTSSGILYEVDARLRPSGAAGMLVTSADAFADYQQHEAWTWEHQALVRARVVYGDPQLTSQFDAVRRTIMTTARDGKTLQTEVREMREKMRAHLGNKHRDRFDIKADEGGITDIEFIAQYLVLRYAHEKPKLTRWSDNVRILELLAQNGIMDEHEAQALTVAYTTLRDELHHLALQELPGHVAQTCFSKERALVQASWRKWLVAV | soluble
MTFLLKSCSTFFEKFCCCCKKYESEWNTQLESISLFAARRGFTDGEPYLILFGLCPNANKTFIVSENKLSDSNICLGDFLVACSDSPKNLKNFKKVPYPLDVTVEGDYAIISYSSMEAIKDISGILIFQTTDFGPIRSLNQNLDLDEYNITVHATGVSASGHVIELRAKAQPASNYRNSSVYENPSFLDDLSDEPLEIKKTISNNSLDGFSMEQLIQQLPTLELGEAENSVRVPQNLSAPRLMKAFVYSVHQYPHTKFHFLWICDIMEKSILKLPQYDFELGYFFEGIFKQKSNGKWECEQYNNKIEPLINGTVVINEYNGNEKVELTTTVTNYKPKNNTRKWPEVEAKYLGVVYDRHNKLPKNCEGQKVEVQMMKIDKEQYGWVITDILNE | not soluble
